Experiments:
HLA-B*15:02 = assay: IEDB peptide-MHC binding, purified MHC/competitive/fluorescence; filed as Kd, often an IC50 or EC50 that approximates it; ≥ and ≤ were set here for values at or beyond the usual limits of such assays; details: source organism: Vibrio vulnificus CMCP6
HLA-B*45:06 = assay: as above
HLA-A*68:23 = assay: as above; details: source organism: Sudan ebolavirus
HLA-B*15:42 = assay: as above
HLA-B*83:01 = assay: as above
HLA-A*01:01 = assay: IEDB peptide-MHC binding, purified MHC/direct/fluorescence; filed as Kd, often an IC50 or EC50 that approximates it; ≥ and ≤ were set here for values at or beyond the usual limits of such assays
HLA-A*29:02 = assay: as above; details: source organism: Sudan ebolavirus
HLA-B*73:01 = assay: IEDB peptide-MHC binding, purified MHC/competitive/fluorescence; filed as Kd, often an IC50 or EC50 that approximates it; ≥ and ≤ were set here for values at or beyond the usual limits of such assays
HLA-B*51:01 [1] = assay: IEDB peptide-MHC binding, purified MHC/competitive/fluorescence; ≥ and ≤ were set here for values at or beyond the usual limits of such assays; details: source organism: Taeniopygia guttata
HLA-A*02:01 [2] = assay: as above; details: source organism: Taeniopygia guttata
HLA-B*27:20 = assay: IEDB peptide-MHC binding, purified MHC/competitive/fluorescence; filed as Kd, often an IC50 or EC50 that approximates it; ≥ and ≤ were set here for values at or beyond the usual limits of such assays
HLA-B*40:01 = assay: IEDB peptide-MHC binding, purified MHC/direct/fluorescence; filed as Kd, often an IC50 or EC50 that approximates it; ≥ and ≤ were set here for values at or beyond the usual limits of such assays
HLA-A*02:50 = assay: IEDB peptide-MHC binding, purified MHC/competitive/fluorescence; filed as Kd, often an IC50 or EC50 that approximates it; ≥ and ≤ were set here for values at or beyond the usual limits of such assays
HLA-A*02:01 [3] = assay: IEDB peptide-MHC binding, purified MHC/direct/fluorescence; filed as Kd, often an IC50 or EC50 that approximates it; ≥ and ≤ were set here for values at or beyond the usual limits of such assays
HLA-A*69:01 = assay: as above
HLA-B*07:02 = assay: as above; details: source organism: Giardia lamblia ATCC 50803
HLA-B*15:01 = assay: as above; details: source organism: Giardia lamblia ATCC 50803
HLA-B*46:01 = assay: as above; details: source organism: Giardia lamblia ATCC 50803
HLA-A*11:01 = assay: as above; details: source organism: Giardia lamblia ATCC 50803
HLA-B*18:01 = assay: as above; details: source organism: Giardia lamblia ATCC 50803
HLA-B*15:09 = assay: as above; details: source organism: Giardia lamblia ATCC 50803
HLA-B*51:01 [4] = assay: as above; details: source organism: Giardia lamblia ATCC 50803
HLA-B*15:17 = assay: as above; details: source organism: Giardia lamblia ATCC 50803
HLA-B*58:01 = assay: as above; details: source organism: Giardia lamblia ATCC 50803
HLA-A*03:01 = assay: as above; details: source organism: Giardia lamblia ATCC 50803
HLA-A*26:01 = assay: as above; details: source organism: Giardia lamblia ATCC 50803
HLA-B*08:01 = assay: as above; details: source organism: Giardia lamblia ATCC 50803
HLA-B*48:01 = assay: as above; details: source organism: Giardia lamblia ATCC 50803
HLA-A*30:01 = assay: as above; details: source organism: Giardia lamblia ATCC 50803
HLA-B*27:05 = assay: as above; details: source organism: Giardia lamblia ATCC 50803
HLA-B*57:01 = assay: as above; details: source organism: Giardia lamblia ATCC 50803
HLA-A*31:01 = assay: as above; details: source organism: Giardia lamblia ATCC 50803
HLA-C*06:02 = assay: as above; details: source organism: human gammaherpesvirus 4
HLA-A*02:19 = assay: as above; details: source organism: Coxiella burnetii Q321
[5] = source organism: Sudan ebolavirus
[6] = source organism: Listeria monocytogenes HPB2262
[7] = source organism: Mycobacterium tuberculosis H37Ra
[8] = source organism: Mycobacterium tuberculosis
[9] = source organism: Giardia lamblia ATCC 50803
[10] = source organism: human gammaherpesvirus 4
[11] = source organism: Coxiella burnetii

With AMRVGSSIM the Kd (HLA-B*15:02) was 0.118 µM.

CTSSIQYHR showed a Kd (HLA-B*45:06; [5]) of at least 5 µM, a Kd (HLA-A*68:23) of 0.0038 µM and a Kd (HLA-B*15:42; [5]) of at least 5 µM. It also gave a Kd (HLA-B*83:01; [5]) of at least 5 µM, a Kd (HLA-A*01:01; [5]) of at least 20 µM and a Kd (HLA-A*29:02) of 1.44 µM.

For FETMVFPAV, the Kd (HLA-B*45:06; [6]) was at least 5 µM, the Kd (HLA-B*15:42; [6]) was at least 5 µM and the Kd (HLA-B*73:01; [6]) was at least 5 µM. It also gave a Kd (HLA-B*83:01; [6]) of at least 5 µM.

Work on FLLPILSQI yielded an IC50 (HLA-B*51:01 [1]) of at least 20 µM and an IC50 (HLA-A*02:01 [2]) of 0.0526 µM.

With KRPYVFVAA the Kd (HLA-B*73:01; source organism: Yersinia enterocolitica subsp. enterocolitica 8081) was 0.0685 µM.

For LEMQHLISL, the Kd (HLA-B*45:06; [7]) was at least 5 µM, the Kd (HLA-B*15:42; [7]) was at least 5 µM and the Kd (HLA-B*27:20; [7]) was 1.11 µM. The Kd (HLA-B*40:01; [8]) was 0.0137 µM.

For LLYEVDGDV, the Kd (HLA-A*02:50; source organism: Mycobacterium tuberculosis variant bovis BCG str. Pasteur 1173P2) was 1.13 µM, the Kd (HLA-A*02:01 [3]; [8]) was at least 20 µM and the Kd (HLA-A*69:01; [8]) was at least 20 µM.

In the case of RPALVVDTP, the Kd (HLA-B*07:02) is reported as at least 20 µM, the Kd (HLA-B*15:01) is reported as at least 20 µM and the Kd (HLA-B*46:01) is reported as at least 20 µM. It also gave a Kd (HLA-A*11:01) of at least 20 µM, a Kd (HLA-B*18:01) of at least 20 µM and a Kd (HLA-B*15:09) of at least 20 µM. The Kd (HLA-B*51:01 [4]) was at least 20 µM, the Kd (HLA-B*15:17) was at least 20 µM and the Kd (HLA-B*58:01) was at least 20 µM. The Kd (HLA-A*02:01 [3]; [9]) was at least 20 µM, the Kd (HLA-A*03:01) was at least 20 µM and the Kd (HLA-A*01:01; [9]) was at least 20 µM. The Kd (HLA-A*26:01) was at least 20 µM, the Kd (HLA-B*40:01; [9]) was at least 20 µM and the Kd (HLA-B*08:01) was at least 20 µM. For the same sequence, the Kd (HLA-A*69:01; [9]) was at least 20 µM, the Kd (HLA-B*48:01) was at least 20 µM and the Kd (HLA-A*30:01) was at least 20 µM. It also gave a Kd (HLA-B*27:05) of at least 20 µM, a Kd (HLA-B*57:01) of at least 20 µM and a Kd (HLA-A*31:01) of at least 20 µM.

RRYASQTEL gave a Kd (HLA-B*45:06; [10]) of at least 5 µM, a Kd (HLA-B*15:42; [10]) of at least 5 µM and a Kd (HLA-B*27:20; [10]) of 0.0002 µM. The Kd (HLA-B*83:01; [10]) was at least 5 µM and the Kd (HLA-C*06:02) was 0.021 µM.

Work on YQLGDYFFV yielded a Kd (HLA-A*02:50; source organism: Coxiella burnetii Dugway 5J108-111) of at most 0.0001 µM, a Kd (HLA-A*02:19) of 0.002 µM and a Kd (HLA-A*02:01 [3]; [11]) of 0.0015 µM. It also gave a Kd (HLA-A*69:01; [11]) of 0.0013 µM.

From the Immune Epitope Database (IEDB)
